{"source": "patent US8840891", "about": "(RSR, dated 2014)", "key": {"[1]": {"molecular_target": "TSHR coated on ELISA plate wells (RSR Ltd) (human) (UniProt P16473)", "assay": "ELISA on TSHR-coated wells, inhibition of TSH-biotin binding"}, "[2]": {"molecular_target": "TSHR coated on ELISA plate wells (RSR Ltd) (human) (UniProt P16473)", "assay": "ELISA on TSHR-coated wells, inhibition of 5C9 IgG-biotin binding"}, "[3]": {"molecular_target": "TSHR coated on ELISA plate wells (RSR Ltd) (human) (UniProt P16473)", "assay": "ELISA on TSHR-coated wells, TSH-biotin binding with HBD pool (no competitor)"}, "[4]": {"molecular_target": "TSHR coated onto tubes (TSHR coated tubes) (human) (UniProt P16473)", "assay": "TSHR coated tubes"}, "[5]": {"molecular_target": "TSHR coated onto tubes (TSHR coated tubes) (human) (UniProt P16473)", "assay": "TSHR coated tubes, in presence of HBD pool"}, "[6]": {"molecular_target": "TSHR coated onto tubes (TSHR coated tubes) (human) (UniProt P16473)", "assay": "TSHR coated tubes, in the presence of HBD pool (Table 5)"}, "[7]": {"molecular_target": "TSHR coated onto tubes (TSHR coated tubes) (human) (UniProt P16473)", "assay": "TSHR coated tubes, in the presence of HBD pool (Tables 4a, 4b)"}, "[8]": {"molecular_target": "human TSHR, wild type, expressed on CHO cells (human) (UniProt P16473)", "assay": "cell-based or functional assay"}, "[9]": {"molecular_target": "human TSHR with activating mutation A623I, on CHO cells (human) (UniProt P16473)", "assay": "cell-based or functional assay"}, "[10]": {"molecular_target": "human TSHR, wild type, expressed on CHO cells (human) (UniProt P16473)", "assay": "cell-based or functional assay", "remark": "listed apart in the source"}}, "note": "Read-outs that look alike come from different tables or passages of the source."}
{"substance": "M22 IgG, human monoclonal thyroid stimulating autoantibody (hMAb TSHR1)", "values": [{"measurement": "% inhibition", "setting": "[1]", "result": 15, "unit": "%"}, {"measurement": "% inhibition", "setting": "[2]", "result": 28, "unit": "%"}]}
{"substance": "TSH-biotin (ligand)", "values": [{"measurement": "Abs 450 nm", "setting": "[3]", "result": 2.14, "unit": "Abs 450 nm"}]}
{"substance": "125I-labelled TSH (ligand)", "values": [{"measurement": "average % binding of labelled tracer", "setting": "[4]", "result": 14, "unit": "%"}, {"measurement": "% binding of labelled tracer", "setting": "[5]", "result": 12, "unit": "%"}, {"measurement": "% of labelled protein bound", "setting": "[6]", "result": 15, "unit": "%"}, {"measurement": "% of labelled protein bound", "setting": "[7]", "result": 12, "unit": "%"}]}
{"substance": "9D33 IgG, mouse monoclonal antibody to the TSHR with blocking activity", "values": [{"measurement": "cyclic AMP; Exp 1; 9D33 0.01 µg/mL + M22 3 ng/mL", "setting": "[8]", "result": 47.5, "unit": "pmol/mL"}, {"measurement": "cyclic AMP; Exp 1; 9D33 0.1 µg/mL + M22 3 ng/mL", "setting": "[8]", "result": 27.6, "unit": "pmol/mL"}, {"measurement": "cyclic AMP; Exp 1; 9D33 1 µg/mL + M22 3 ng/mL", "setting": "[8]", "result": 5.25, "unit": "pmol/mL"}, {"measurement": "cyclic AMP; Exp 1; 9D33 10 µg/mL + M22 3 ng/mL", "setting": "[8]", "result": 2.5, "unit": "pmol/mL"}, {"measurement": "cyclic AMP; Exp 1; 9D33 100 µg/mL + M22 3 ng/mL", "setting": "[8]", "result": 2.13, "unit": "pmol/mL"}, {"measurement": "cyclic AMP; Exp 1; 9D33 100 µg/mL only", "setting": "[8]", "result": 1.51, "unit": "pmol/mL"}, {"measurement": "cyclic AMP; Exp 2; 9D33 0.001 µg/mL + M22 3 ng/mL", "setting": "[8]", "result": 79.1, "unit": "pmol/mL"}, {"measurement": "cyclic AMP; Exp 2; 9D33 0.01 µg/mL + M22 3 ng/mL", "setting": "[8]", "result": 60.2, "unit": "pmol/mL"}, {"measurement": "cyclic AMP; Exp 2; 9D33 0.1 µg/mL + M22 3 ng/mL", "setting": "[8]", "result": 38.7, "unit": "pmol/mL"}, {"measurement": "cyclic AMP; Exp 2; 9D33 1 µg/mL + M22 3 ng/mL", "setting": "[8]", "result": 6.03, "unit": "pmol/mL"}, {"measurement": "cyclic AMP; Exp 2; 9D33 10 µg/mL + M22 3 ng/mL", "setting": "[8]", "result": 0.67, "unit": "pmol/mL"}, {"measurement": "cyclic AMP; Exp 2; 9D33 100 µg/mL + M22 3 ng/mL", "setting": "[8]", "result": 1.42, "unit": "pmol/mL"}, {"measurement": "cyclic AMP; Exp 2; 9D33 100 µg/mL only", "setting": "[8]", "result": 1.76, "unit": "pmol/mL"}, {"measurement": "cyclic AMP; Exp 3; 9D33 0.001 µg/mL + M22 0.3 ng/mL", "setting": "[8]", "result": 12.8, "unit": "pmol/mL"}, {"measurement": "cyclic AMP; Exp 3; 9D33 0.01 µg/mL + M22 0.3 ng/mL", "setting": "[8]", "result": 15.2, "unit": "pmol/mL"}, {"measurement": "cyclic AMP; Exp 3; 9D33 0.1 µg/mL + M22 0.3 ng/mL", "setting": "[8]", "result": 5.38, "unit": "pmol/mL"}, {"measurement": "cyclic AMP; Exp 3; 9D33 1 µg/mL + M22 0.3 ng/mL", "setting": "[8]", "result": 0.83, "unit": "pmol/mL"}, {"measurement": "cyclic AMP; Exp 3; 9D33 10 µg/mL + M22 0.3 ng/mL", "setting": "[8]", "result": 0.97, "unit": "pmol/mL"}, {"measurement": "cyclic AMP; Exp 3; 9D33 100 µg/mL + M22 0.3 ng/mL", "setting": "[8]", "result": 1.03, "unit": "pmol/mL"}, {"measurement": "cyclic AMP; Exp 3; 9D33 100 µg/mL only", "setting": "[8]", "result": 0.88, "unit": "pmol/mL"}, {"measurement": "cyclic AMP; Exp 4; 9D33 0.001 µg/mL + M22 0.3 ng/mL", "setting": "[8]", "result": 43.2, "unit": "pmol/mL"}, {"measurement": "cyclic AMP; Exp 4; 9D33 0.01 µg/mL + M22 0.3 ng/mL", "setting": "[8]", "result": 38.9, "unit": "pmol/mL"}, {"measurement": "cyclic AMP; Exp 4; 9D33 0.1 µg/mL + M22 0.3 ng/mL", "setting": "[8]", "result": 27.6, "unit": "pmol/mL"}, {"measurement": "cyclic AMP; Exp 4; 9D33 1 µg/mL + M22 0.3 ng/mL", "setting": "[8]", "result": 2.66, "unit": "pmol/mL"}, {"measurement": "cyclic AMP; Exp 4; 9D33 10 µg/mL + M22 0.3 ng/mL", "setting": "[8]", "result": 1.25, "unit": "pmol/mL"}, {"measurement": "cyclic AMP; Exp 4; 9D33 100 µg/mL + M22 0.3 ng/mL", "setting": "[8]", "result": 2, "unit": "pmol/mL"}, {"measurement": "cyclic AMP; Exp 4; 9D33 100 µg/mL only", "setting": "[8]", "result": 2.38, "unit": "pmol/mL"}, {"measurement": "basal cyclic AMP (buffer only 36.89); 9D33 IgG 0.001 µg/mL", "setting": "[9]", "result": 29.6, "unit": "pmol/mL"}, {"measurement": "basal cyclic AMP (buffer only 36.89); 9D33 IgG 0.01 µg/mL", "setting": "[9]", "result": 27.6, "unit": "pmol/mL"}, {"measurement": "basal cyclic AMP (buffer only 36.89); 9D33 IgG 0.1 µg/mL", "setting": "[9]", "result": 31.8, "unit": "pmol/mL"}, {"measurement": "basal cyclic AMP (buffer only 36.89); 9D33 IgG 1 µg/mL", "setting": "[9]", "result": 40.1, "unit": "pmol/mL"}, {"measurement": "% inhibition of basal cyclic AMP production; Exp 3; 9D33 IgG 0.001 µg/mL", "setting": "[10]", "result": 12, "unit": "%"}, {"measurement": "cyclic AMP; Exp 1; 9D33 1 µg/mL + TSH 3 ng/mL", "setting": "[10]", "result": 28.7, "unit": "pmol/mL"}, {"measurement": "cyclic AMP; Exp 1; 9D33 10 µg/mL + TSH 3 ng/mL", "setting": "[10]", "result": 23.8, "unit": "pmol/mL"}, {"measurement": "cyclic AMP; Exp 1; 9D33 10 µg/mL only", "setting": "[10]", "result": 2.9, "unit": "pmol/mL"}, {"measurement": "cyclic AMP; Exp 2; 9D33 1 µg/mL + TSH 3 ng/mL", "setting": "[10]", "result": 19, "unit": "pmol/mL"}, {"measurement": "cyclic AMP; Exp 2; 9D33 10 µg/mL + TSH 3 ng/mL", "setting": "[10]", "result": 9.5, "unit": "pmol/mL"}, {"measurement": "cyclic AMP; Exp 2; 9D33 10 µg/mL only", "setting": "[10]", "result": 1.6, "unit": "pmol/mL"}, {"measurement": "cyclic AMP; Exp 3; 9D33 0.01 µg/mL + TSH 3 ng/mL", "setting": "[10]", "result": 47.1, "unit": "pmol/mL"}, {"measurement": "cyclic AMP; Exp 3; 9D33 0.1 µg/mL + TSH 3 ng/mL", "setting": "[10]", "result": 35.1, "unit": "pmol/mL"}, {"measurement": "cyclic AMP; Exp 3; 9D33 1 µg/mL + TSH 3 ng/mL", "setting": "[10]", "result": 27.8, "unit": "pmol/mL"}, {"measurement": "cyclic AMP; Exp 3; 9D33 10 µg/mL + TSH 3 ng/mL", "setting": "[10]", "result": 13.5, "unit": "pmol/mL"}, {"measurement": "cyclic AMP; Exp 3; 9D33 100 µg/mL + TSH 3 ng/mL", "setting": "[10]", "result": 10.5, "unit": "pmol/mL"}, {"measurement": "cyclic AMP; Exp 3; 9D33 100 µg/mL only", "setting": "[10]", "result": 1.14, "unit": "pmol/mL"}, {"measurement": "cyclic AMP; Exp 4; 9D33 0.1 µg/mL + TSH 0.3 ng/mL", "setting": "[10]", "result": 20.2, "unit": "pmol/mL"}, {"measurement": "cyclic AMP; Exp 4; 9D33 1 µg/mL + TSH 0.3 ng/mL", "setting": "[10]", "result": 9.01, "unit": "pmol/mL"}, {"measurement": "cyclic AMP; Exp 4; 9D33 10 µg/mL + TSH 0.3 ng/mL", "setting": "[10]", "result": 4.23, "unit": "pmol/mL"}, {"measurement": "cyclic AMP; Exp 4; 9D33 100 µg/mL + TSH 0.3 ng/mL", "setting": "[10]", "result": 3.53, "unit": "pmol/mL"}, {"measurement": "cyclic AMP; Exp 4; 9D33 100 µg/mL only", "setting": "[10]", "result": 0.99, "unit": "pmol/mL"}, {"measurement": "cyclic AMP; Exp 5; 9D33 0.1 µg/mL + TSH 0.3 ng/mL", "setting": "[10]", "result": 14.7, "unit": "pmol/mL"}, {"measurement": "cyclic AMP; Exp 5; 9D33 1 µg/mL + TSH 0.3 ng/mL", "setting": "[10]", "result": 6.38, "unit": "pmol/mL"}, {"measurement": "cyclic AMP; Exp 5; 9D33 5 µg/mL + TSH 0.3 ng/mL", "setting": "[10]", "result": 3.71, "unit": "pmol/mL"}, {"measurement": "cyclic AMP; Exp 5; 9D33 10 µg/mL + TSH 0.3 ng/mL", "setting": "[10]", "result": 3.57, "unit": "pmol/mL"}, {"measurement": "cyclic AMP; Exp 5; 9D33 10 µg/mL only", "setting": "[10]", "result": 2.07, "unit": "pmol/mL"}]}
{"substance": "M22 IgG (human monoclonal thyroid stimulating autoantibody, hMAb TSHR1)", "values": [{"measurement": "average % binding of labelled tracer", "setting": "[4]", "result": 21, "unit": "%"}, {"measurement": "% binding of labelled tracer", "setting": "[5]", "result": 17, "unit": "%"}, {"measurement": "% of labelled protein bound", "setting": "[6]", "result": 24, "unit": "%"}, {"measurement": "% of labelled protein bound", "setting": "[7]", "result": 20, "unit": "%"}]}
